One data set has as its target 3xStrep-GFP-tagged STIL. Nature of the data set: microtubule recruitment assay in cells (MAP7-mCherry-CEP85 / GFP-STIL co-transfection, fluorescence microscopy). The note with it: U-2 OS STIL CRISPR KO cells, co-transfected for 24 h; parent: 98; read off a plot.
The target of data set [1] is T1, H. sapiens CEP85 570-656 (CEP85 cc4) (human, UniProt Q6P2H3 570-656).
T1 chain: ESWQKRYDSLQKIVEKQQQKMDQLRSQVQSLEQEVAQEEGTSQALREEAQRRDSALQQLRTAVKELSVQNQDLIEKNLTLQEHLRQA
The experiment in a line: ITC; 10 °C. On the technique in general: In ITC the heat of successive injections is recorded.

The target in data set [2] is T2, H. sapiens CEP85 570-656 (CEP85 cc4) (Homo sapiens (Human), UniProt Q6P2H3).
T2 chain: T1 chain
The experiment in a line: ITC (25 °C, plus AUC); text gives only a range of ~14-65 µM, nM is its midpoint; affinity varies ~14-65 µM with experimental conditions; CEP85 cc4 must be dimeric to bind (dimer favoured at reduced temperature).

The target of a further data set is T3, chicken STIL NTD (chicken (Gallus gallus), UniProt A0A8V1A6L7 1-365).
T3 construct: STIL, chicken (Gallus gallus), N-terminal domain (NTD), 66% identical to human STIL NTD; construct details in the Supplementary Information; also called Gallus gallus STIL NTD; STIL NTD WT
T3 sequence (looked up): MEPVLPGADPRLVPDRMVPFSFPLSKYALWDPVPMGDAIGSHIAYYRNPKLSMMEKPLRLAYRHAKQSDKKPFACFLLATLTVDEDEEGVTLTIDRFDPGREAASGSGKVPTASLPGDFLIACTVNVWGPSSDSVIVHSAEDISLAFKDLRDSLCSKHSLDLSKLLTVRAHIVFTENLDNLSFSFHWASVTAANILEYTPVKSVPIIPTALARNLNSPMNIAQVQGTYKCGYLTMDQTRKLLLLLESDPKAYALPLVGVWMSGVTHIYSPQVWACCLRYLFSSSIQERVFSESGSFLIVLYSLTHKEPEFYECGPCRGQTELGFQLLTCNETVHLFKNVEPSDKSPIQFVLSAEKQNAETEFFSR
The experiment in a line: ITC + AUC; recombinant chicken STIL NTD and human CEP85 cc4; affinity given as a range depending on the experimental conditions. The note with it: both partners purified.

Data set [3] deals with the molecule itself. The experiment in a line: crystal structure; H. sapiens CEP85 570-656 alone; 18 °C, 100 mM Na-HEPES pH 7.7, 200 mM Na-Citrate, 36% MPD; 1.7 Å.

Consider “3xFLAG-MAP7(17-282)-mCherry-CEP85 wild type mutant E644A [human] / 3xStrep-GFP-tagged STIL [not stated] chain 2 E644A”, for which the screen value with 3xStrep-GFP-tagged STIL was 47 % of cells. The same measure, in the same setting: the same measure for “3xFLAG-MAP7(17-282)-mCherry-CEP85 wild type mutant Q640A [human] / 3xStrep-GFP-tagged STIL [not stated] chain 2 Q640A”: 22 % of cells; for “3xFLAG-MAP7(17-282)-mCherry-CEP85 wild type mutant Q640A; E644A [human] / 3xStrep-GFP-tagged STIL [not stated] chain 2 Q640A, chain 2 E644A”: 11 % of cells.

B1: chicken STIL NTD (domain or fragment)
chain: T3 sequence (looked up)
As for B1, the Kd was 59 µM in data set [1] and ~30 µM in data set [2].

B2: H. sapiens CEP85 570-656 (CEP85 cc4) (domain or fragment, human, UniProt Q6P2H3 570-656, looked up)
chain: T1 chain
notes: CEP85, human, fourth coiled-coil domain (cc4), residues 570-656; Limits are those printed for the crystallised construct; Parallel coiled-coil dimer in the crystals; monomer-dimer equilibrium in solution at room temperature; also called human CEP85 cc4; CEP85 coiled-coil
For B2, the Kd with chicken STIL NTD lay within 14 to 65 µM. Also, in data set [3], the “stoichiometry N” value came to 2.

The Kd is the concentration at which binding is half-saturated. One may read the stoichiometry N as a count of units in the complex or per binding partner.

The values are drawn from PMC5928214, “Direct binding of CEP85 to STIL ensures robust PLK4 activation and efficient centriole assembly” (Nature Communications, 2018).
